From publication PMC4326804
Several values for one entry are separate records, joined by “and”; a condition that tells them apart may be missing. Equal entries are not always repeated.

What was measured:
[1] = target: His6-tagged nucleocapsid (N) protein of tomato spotted wilt virus (TSWV) (tomato spotted wilt virus (Yunnan isolate)); experiment: cross-linking; 30 ug purified N protein with increasing glutaraldehyde, 37 °C for 5 min, quenched with Tris-HCl pH 7.5; 5-20% SDS-PAGE, Coomassie staining; self-association
[2] = target: free-tag TSWV N protein (tomato spotted wilt virus (Yunnan isolate)); experiment: native gel or EMSA; 4-16% discontinuous blue native PAGE at 4 °C, cathode buffer 100 mM histidine pH 8.0 with 0.002% Coomassie G-250; purified N protein without PEI treatment (carries E. coli RNA); self-association

Substance	stoichiometry N [1]	stoichiometry N [2]
His6-tagged nucleocapsid (N) protein of tomato spotted wilt virus (TSWV) (natural protein)	> 3 and 2 and 3	–
free-tag TSWV N protein (natural protein)	–	2 and 3 and 4
